Assay results from patent publication US7618787B2, “Method of screening compound capable of accelerating or inhibiting apoptosis, apoptosis accelarator and apoptosis inhibitor” (Hisamitsu Pharmaceutical Co., Inc., priority 2004, dated 2009).

T1: p73 (Homo sapiens, UniProt O15350)
T1 construct: expressed in transfected cells; host or cells: COS7
T1 sequence (O15350 1-636): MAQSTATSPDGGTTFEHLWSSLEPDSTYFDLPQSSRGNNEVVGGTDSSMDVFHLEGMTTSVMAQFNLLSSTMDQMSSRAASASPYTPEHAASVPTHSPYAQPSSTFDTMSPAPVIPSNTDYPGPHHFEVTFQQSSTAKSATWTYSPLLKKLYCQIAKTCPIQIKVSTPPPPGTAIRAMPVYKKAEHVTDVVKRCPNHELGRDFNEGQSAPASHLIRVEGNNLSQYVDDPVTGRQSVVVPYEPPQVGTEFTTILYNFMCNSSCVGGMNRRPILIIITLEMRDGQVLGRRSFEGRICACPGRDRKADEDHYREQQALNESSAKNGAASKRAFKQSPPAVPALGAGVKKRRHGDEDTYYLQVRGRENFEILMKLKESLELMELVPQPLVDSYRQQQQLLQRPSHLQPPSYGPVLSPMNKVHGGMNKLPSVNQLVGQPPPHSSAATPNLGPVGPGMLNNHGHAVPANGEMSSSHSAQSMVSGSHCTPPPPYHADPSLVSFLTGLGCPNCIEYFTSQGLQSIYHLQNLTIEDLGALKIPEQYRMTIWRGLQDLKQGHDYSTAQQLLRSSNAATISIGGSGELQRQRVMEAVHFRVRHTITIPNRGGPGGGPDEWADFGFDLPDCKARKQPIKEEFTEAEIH

B1: IKK-α (K44A): IKK-α with 44th lysine substituted by alanine, SEQ ID NO: 25, lacking kinase activity; apoptosis inhibitor (protein)
chain: MERPPGLRPGAGGPWEMRERLGTGGFGNVCLYQHRELDLKIAIASCRLELSTKNRERWCHEIQIMKKLNHANVVKACDVPEELNILIHDVPLLAMEYCSGGDLRKLLNKPENCCGLKESQILSLLSDIGSGIRYLHENKIIHRDLKPENIVLQDVGGKIIHKIIDLGYAKDVDQGSLCTSFVGTLQYLAPELFENKPYTATVDYWSFGTMVFECIAGYRPFLHHLQPFTWHEKIKKKDPKCIFACEEMSGEVRFSSHLPQPNSLCSLIVEPMENWLQLMLNWDPQQRGGPVDLTLKQPRCFVLMDHILNLKIVHILNMTSAKIISFLLPPDESLHSLQSRIERETGINTGSQELLSETGISLDPRKPASQCVLDGVRGCDSYMVYLFDKSKTVYEGPFASRSLSDCVNYIVQDSKIQLPIIQLRKVWAEAVHYVSGLKEDYSRLFQGQRAAMLSLLRYNANLTKMKNTLISASQQLKAKLEFFHKSIQLDLERYSEQMTYGISSEKMLKAWKEMEEKAIHYAEVGVIGYLEDQIMSLHAEIMELQKSPYGRRQGDLMESLEQRAIDLYKQLKHRPSDHSYSDSTEMVKIIVHTVQSQDRVLKELFGHLSKLLGCKQKIIDLLPKVEVALSNIKEADNTVMFMQGKRQKEIWHLLKIACTQSSARSLVGSSLEGAVTPQTSAWLPPTSAEHDHSLSCVVTPQDGETSAQMIEENLNCLGHLSTIIHEANEEQGNSMMNLDWSWLTE
modifications: IKK-alpha(K44A)
B2: UFD2a: UFD2a protein, SEQ ID NO: 26, U-box ubiquitin protein ligase; apoptosis inhibitor (protein, listed as Homo sapiens)
chain: MEELSADEIRRRRLARLAGGQTSQPTTPLTSPQRENPPGPPIAASAPGPSQSLGLNVHNMTPATSPIGASGVAHRSQSSEGVSSLSSSPSNSLETQSQSLSRSQSMDIDGVSCEKSMSQVDVDSGIENMEVDENDRREKRSLSDKEPSSGPEVSEEQALQLVCKIFRVSWKDRDRDVIFLSSLSAQFKQNPKEVFSDFKDLIGQILMEVLMMSTQTRDENPFASLTATSQPIAAAARSPDRNLLLNTGSNPGTSPMFCSVASFGASSLSSLGASGGASNWDSYSDHFTIETCKETDMLNYLIECFDRVGIEEKKAPKMCSQPAVSQLLSNIRSQCISHTALVLQGSLTQPRSLQQPSFLVPYMLCRNLPYGFIQELVRTTHQDEEVFKQIFIPILQGLALAAKECSLDSDYFKYPLMALGELCETKFGKTHPVCNLVASLRLWLPKSLSPGCGRELQRLSYLGAFFSFSVFAEDDVKVVEKYFSGPAITLENTRVVSQSLQHYLELGRQELFKILHSILLNGETREAALSYMAAVVNANMKKAQMQTDDRLVSTDGFMLNFLWVLQQLSTKIKLETVDPTYIFHPRCRITLPNDETRVNATMEDVNDWLTELYGDQPPFSEPKFPTECFFLTLHAHHLSILPSCRRYIRRLRAIRELNRTVEDLKNNESQWKDSPLATRHREMLKRCKTQLKKLVRCKACADAGLLDESFLRRCLNFYGLLIQLLLRILDPAYPDITLPLNSDVPKVFAALPEFYVEDVAEFLFFIVQYSPQALYEPCTQDIVMFLVVMLCNQNYIRNPYLVAKLVEVMFMTNPAVQPRTQKFFEMIENHPLSTKLLVPSLMKFYTDVEHTGATSEFYDKFTIRYHISTIFKSLWQNIAHHGTFMEEFNSGKQFVRYINMLINDTTFLLDESLESLKRIHEVQEEMKNKEQWDQLPRDQQQARQSQLAQDERVSRSYLALATETVDMFHILTKQVQKPFLRPELGPRLAAMLNFNLQQLCGPKCRDLKVENPEKYGFEPKKLLDQLTDIYLQLDCARFAKAIADDQRSYSKELFEEVISKMRKAGIKSTIAIEKFKLLAEKVEEIVAKNARAEIDYSDAPDEFRDPLMDTLMTDPVRLPSGTIMDRSIILRHLLNSPTDPFNRQTLTESMLEPVPELKEQIQAWMREKQNSDH

Legend:
[1] = target: T1, p73; assay: Co-immunoprecipitation with p73 in transfected COS7 cells; type: binding; conditions: COS7, co-immunoprecipitation (FIG. 10, FIG. 28)
Description: Whole cell lysates were centrifuged at 15000 rpm for 15 minutes to remove cell debris. The obtained supernatant was pretreated at 4° C. for 30 minutes with protein G-Sepharose (50% slurry, 30 μL; Amersham Pharmacia Biotech). After centrifugation, the supernatant was incubated at 4° C. for 2 hours with an anti-HA polyclonal (Medical and Biological Laboratories) or anti-FLAG monoclonal antibody. The immunocomplexes were precipitated at 4° C. for 30 minutes with protein G-Sepharose beads. After collection by brief centrifugation, the immunoprecipitates were washed three times with lysis buffer, then suspended in 30 μL of 2×Laemmli SDS sample buffer, and treated at 100° C. for 5 minutes. The supernatant was loaded onto 10% SDS-PAGE and analyzed by immunoblot as described above.
To investigate whether IKK-α interacted with p73 in cultured mammal cells, whole cell lysates were prepared from transfected COS7 cells, then immunoprecipitated with an anti-FLAG or anti-HA antibody, and analyzed by immunoblot using an anti-p73 or anti-FLAG antibody, respectively. […] Likewise, HA-p73β was co-immunoprecipitated with FLAG-IKK-α (data not shown). […] To identify determinants of p73 participating in the interaction with IKK-α, several deletion mutants of p73 fused to GST were prepared and examined for their abilities to bind to FLAG-IKK-α by in-vitro pull-down assay. These mutants were designed on the basis of the functional domains of p73 including transactivation, DNA-binding, oligomerization, and SAM domains (FIG. 12).

[2] = system: U2OS or H1299 cells; assay: Apoptosis induced by cisplatin in transfected cells; type: cell-based, human; conditions: U2OS and H1299 (FIGS. 31 and 33)
[3] = target: T1, p73; assay: p73 protein level (stabilization) by immunoblot in cotransfected COS7 cells; type: cell-based; conditions: COS7 cotransfection (FIG. 14, 15, 29)
Description: Cells were transiently transfected with a total of 2 μg of expression plasmids. After 48 hours of the transfection, the cells were washed with ice-cold PBS and suspended in lysis buffer (pH 8.0; which contained 25 mM Tris-Cl, 137 mM sodium chloride, 1% Triton X-100, 1 mM phenylmethylsulfonyl fluoride (PMSF), and protease inhibitor mix (Roche Molecular Biochemicals)), followed by brief sonication. After centrifugation at 15000 rpm for 10 minutes, the supernatant was collected and assayed for protein concentrations by the Bradford assay (Bio-Rad). Equal amounts of lysates (protein amount: 50 μg) from the whole cells were denatured by boiling in Laemmli SDS-sample buffer, then separated on 10% SDS-polyacrylamide gel (SDS-PAGE), and transferred at room temperature for 1 hour to polyvinylidene difluoride (PVDF) membranes (Immobilon-P; Millipore) in Tris-glycine buffer containing 10% methanol. The membranes were blocked at room temperature for 1 hour with Tris-buffered saline (TBS-T) containing 5% skim milk and 0.1% Tween 20.
As previously reported, some protein kinases (e.g., c-Abl and PKCδ) that interact with p73 can stabilize p73. To confirm whether IKK-α influenced the stabilization of p73, COS7 cells were transfected with a constant amount of HA-p73α expression plasmid together with or without varying amounts of IKK-α expression plasmids and examined for HA-p73α protein levels. […] Next, whether IKK-β influenced the stabilization of p73 and p53 was investigated by transient transfection.

[4] = system: endogenous p53; assay: Amount of endogenous p53 in cisplatin-treated U2OS cells (immunoblot); type: cell-based, human; conditions: cisplatin 24 hours (FIG. 30)
[5] = system: p53; assay: Amount of endogenous p53 in COS7 cells (immunoblot); type: cell-based, African green monkey; conditions: COS7, cisplatin 20 μg/mL for 24 hours (FIG. 35)
Description: To examine the influence of UFD2a on endogenous p73, the following experiment was performed. COS7 cells were transfected or untransfected with a FLAG-UFD2a expression plasmid. After 24 hours of the transfection, the cells were exposed to cisplatin (final concentration: 20 μg/mL) for 24 hours or left untreated. Whole cell lysates were prepared from the transfected cells and analyzed for p73α, p53, and UFD2a expression by immunoblot. Actin was utilized as a control for addition.

[6] = system: H1299 cells; assay: p73-dependent apoptosis (DAPI staining, abnormal nuclei); type: cell-based, human; conditions: H1299, cotransfection with HA-p73α, 48 hours (FIG. 36)
Description: (§1) To examine the influence of UFD2a on p73-dependent apoptosis, the following experiment was performed. p53-deficient H1299 cells were transiently cotransfected with the given combinations (HA-p73α, p53, and FLAG-UFD2a) of expression plasmids. After 48 hours of the transfection, the cells were fixed at room temperature for 30 minutes in 3.7% formaldehyde, then permeabilized at room temperature for 5 minutes with 0.2% Triton X-100, and blocked for 1 hour with 3% BSA. The cells were washed three times with 1×PBS and stained at room temperature for 20 minutes with DAPI (4′,6-diamidino-2-phenylindole; 1 μg/mL). Of the cells transfected with GFP, cells having abnormal nuclei were counted under a microscope.

[7] = system: H1299 cells; assay: p53-dependent apoptosis (DAPI staining, abnormal nuclei); type: cell-based, human; conditions: H1299, cotransfection with p53, 48 hours (FIG. 36)
Description: as §1

| Molecule | complex formation with HA-p73α [1] | apoptosis induced by cisplatin [2] | amount of HA-p73α [3] | amount of endogenous p53 [4] | amount of endogenous p53 [5] | number of apoptotic cells, p73-dependent [6] | p53-dependent apoptosis [7] |
| --- | --- | --- | --- | --- | --- | --- | --- |
| B1 | maintained the ability to form complexes with p73α | remarkably inhibited | almost no effect on the intracellular level of exogenously expressed HA-p73α | no remarkable effect on the amount of endogenous p53 |  |  |  |
| B2 |  |  |  |  | no influence on the amount of endogenous p53 | decreased the number of apoptotic cells | could not suppress p53-dependent apoptosis |
